The record followed here is article PMC7556464, “4CMenB vaccine induces elite cross-protective human antibodies that compete with human factor H for binding to meningococcal fHbp” (PLoS Pathogens, 2020).

Where a chain is given by its changes, count along the chain named.

First the molecules themselves.
T1: factor H binding protein (fHbp) variant 1.1 (Neisseria meningitidis MC58, fHbp v1.1, strain)
T1 construct: also called fHbp v1.1; fHbp v1; source: E. coli BL21(DE3), purified (Ni-NTA; SEC when necessary)
T1 chain: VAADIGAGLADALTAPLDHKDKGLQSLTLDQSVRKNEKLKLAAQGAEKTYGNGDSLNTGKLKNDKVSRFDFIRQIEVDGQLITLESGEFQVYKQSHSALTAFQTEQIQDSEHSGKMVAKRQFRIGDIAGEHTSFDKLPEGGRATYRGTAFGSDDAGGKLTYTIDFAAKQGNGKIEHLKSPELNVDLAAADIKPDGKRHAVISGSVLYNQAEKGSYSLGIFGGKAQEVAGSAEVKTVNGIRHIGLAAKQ

B1: human anti-fHbp mAb 4B10 (antibody, V domains shown)
VH: EVQLVESGGGLVKPGGSLRLSCAASGFAFSTYSLHWVRQAPGKGLEWVSAITSSGSFLYYADSLKGRFTVSRDNAKNSLFLQMNSLRAGDTAVYYCARALQVEDGFPMFSGLDVWGQGTTVTVSS
VL: QTVVTQPPSVSEAPRQRVAISCSGSSSNIGDNSVSWYQQLPGKAPKLLIYDDDLLPSGVSDRFSASKSGTSASLAISGLQSEDEAEYYCAAWDDSLKGVVFGGGTKLTVL
notes: source: Expi293, transient transfection, purified (protein G Sepharose)
B2: human anti-fHbp mAb 5C6 (antibody, V domains shown)
VH: EVQLLESGGGLVQPGGSLRLSCAASGFTFSSYAMSWVRQTPGKGLEWVSAISGSGGSTYYADSVQGRFTISRDNSKNTLYLQINSLRAEDTAVYYCAKDPGFVLSSGWYYFDYWGQGTLVTVSS
VL: not shown
notes: as for B1
B3: human anti-fHbp mAb 1D1 (antibody, V domains shown)
VH: QVQLVGSGGGLVKPGGSLRLSCAASGFTFSSYTMNWVRQAPGKGLEWVSSISSSSGYIYYADSLKGRFTISRDDAKNSLFLQMNSLRAEDTAVYFCARDKVLPAPPGFYGLDVWGPGTTVTVSS
VL: QSVVTQPPSVSAAPGQKVTISCSGSSSNIEDNFVSWYQQLPGTAPKLLIYDNNQRPSGIPDRFSGSKSGTSATLGITGLQTGDEADYYCATWDNSLSARVFGGGTKLTVL
notes: as for B1
B4: human anti-fHbp mAb 3F1 (antibody, V domains shown)
VH: B3 VH with Q1E, Q3H, G6E, D74N
VL: B3 VL
notes: as for B1
B5: human anti-fHbp mAb 2C8 (antibody, V domains shown)
VH: QVQLVQSGAEVKKPGSSVKVSCKASGGTVINYPISWVRQVPGQGLEWMGRLVPLFGTPNYGQKFQGRITITADKSTSAAYMELIGLKSEDTAVYYCARGDTAMAPFDYWGHGTLVTVSS
VL: QLVLTQPPSVSVAPGKTATITCGGNNVGGKTVHWYQQKPGQAPVLVMSYDSDRPSGIPERFSGSNSGNTATLTISRVEAEDEADYYCQVWHGNDDHWVFGGGTKLTVL
notes: as for B1
B6: human anti-fHbp mAb 4F9 (antibody, V domains shown)
VH: QVQLVQSGGGLVKPGGSLRLSCAASGFPFSSYYMSWIRQAPGKGLEWVSDINNSGNVKEYADFVKGRLTISRDNVKNSMYLHMNSLRVEDTAVYYCARNRGRFDVWGQGTLVTVSA
VL: EIVMTQSPGTLSLSPGETATLSCRASQMISSPFLAWYQQRRGQAPRLLIYGASTRATDTPDRFRGSGSGTDFILTISRLEPEDFAVYYCQHYDDSPFTFGQGTKLEIK
notes: as for B1
B7: human anti-fHbp mAb 4B3 (antibody, V domains shown)
VH: B6 VH
VL: B6 VL with H91Y
notes: as for B1
B8: human anti-fHbp mAb 3G7 (antibody, V domains shown)
VH: B6 VH with Q1E, V5L
VL: B6 VL with M4L, H91Y
notes: as for B1
B9: human anti-fHbp mAb 1E10 (antibody, V domains shown)
VH: QVQLVESGGDLVKPGGSLRLSCVASGFTFSSYTMNWVRQAPGKGLEWVSSITSSSSFTYYADSVKGRFIISRDNAKNSLSLQMNNLRVEDTATYYCARRKDSSDYDWYYYYGMDVWGLGTTVTVSS
VL: QSVVTQPPSVSAAPGQKVTISCSGSSSNIGDNYMSWYQQIPGTAPKLLIFDNDQRPSGIPDRFSASKSGTSATLDITGFQTGDEADYYCGTWDSGLSAPVFGGGTKLTVL
notes: as for B1
B10: human anti-fHbp mAb 5F12 (antibody, V domains shown)
VH: EVQLVESGGDLVKPGGSLRLSCAASGFTFSNYTMNWVRQAPGKGLEWVSSITSSSSFKYYADSVKGRFTISRDNAKNSVFLQMNSLRAEDTAIYYCARRIDSSDQDWFYYYGMDVWGLGTTVTVSS
VL: QSVLTQPPSVSAAPGQRVTISCSGSSSNIGDNYISWYQQLPGTAPKLLIYDNDQRPSGTPDRFSASKSGTSATLGVTGLQTGDEADYYCGTWDSSLNAPVFGSGTKVTVL
notes: as for B1
B11: human anti-fHbp mAb 3B7 (antibody, V domains shown)
VH: EVQLVQSGAEVKKPGSSVKVSCKASGDTFSNYPISWVRQAPGQGLEWMGGIIPIFGTANYAQKFQGRVTITADESTSTPYMELSSLRSEDTAVYYCARGDTAMAPFDYWGQGTLVTVSS
VL: SYVLTQPPSVSVAPGKTARITCGGNSIGSKSVHWYQQKPGQAPVLVIYYDSDRPSGVPERISGSNSGNTATLTISRVEAGDEADYYCQVWDSSSDSWVFGGGTKLTVL
notes: as for B1
B12: human anti-fHbp mAb 2G1 (antibody, V domains shown)
VH: B9 VH
VL: B9 VL with V4L
notes: as for B1

One assay addresses T1, factor H binding protein (fHbp) variant …. The assay can be described thus: SPR. The note with it: both partners purified.
As to B1, the off-rate (koff) turned out to be 0.0025 s⁻¹ and the on-rate constant (kon) amounted to 7.7e+06 M⁻¹ s⁻¹.
The molecule B2 came in with a koff of 0.000454 s⁻¹ and an on-rate (kon) of 420000 M⁻¹ s⁻¹.
Molecule B3 showed an off-rate constant (koff) of 0.00154 s⁻¹ and a kon of 1.81e+06 M⁻¹ s⁻¹.
Take B4: the koff amounted to 0.000917 s⁻¹ and the kon stood at 885000 M⁻¹ s⁻¹.
Molecule B5 came in with a koff of 0.000388 s⁻¹ and an association rate constant (kon) of 1.16e+06 M⁻¹ s⁻¹.
As to B6, the dissociation rate constant (koff) worked out at 0.00251 s⁻¹ and the on-rate (kon) stood at 3.29e+07 M⁻¹ s⁻¹.
The corresponding values for B7 are 0.000217 s⁻¹ and 661000 M⁻¹ s⁻¹.
B8 had a koff of 0.000311 s⁻¹ and a kon of 903000 M⁻¹ s⁻¹.
The corresponding values for B9 are 0.000657 s⁻¹ and 427000 M⁻¹ s⁻¹.
Taken in the same sequence, the figures for B10 were 0.000846 s⁻¹ and 854000 M⁻¹ s⁻¹.
On to B11, for which the dissociation rate constant (koff) was found to be 0.00442 s⁻¹ and the kon turned out to be 1.71e+06 M⁻¹ s⁻¹.

The next assay addresses T2, factor H binding protein (fHbp) variant 3.28 (Neisseria meningitidis M1239, fHbp v3.28, UniProt Q19KF7, strain).
T2 construct: also called fHbp v3.28; fHbp v3; source: E. coli BL21(DE3), purified (Ni-NTA; SEC when necessary)
Put plainly: SPR. The note with it: both partners purified.
For the molecule B1, the off-rate constant (koff) was 0.000473 s⁻¹ and the kon was found to be 284000 M⁻¹ s⁻¹.
B2 had an off-rate constant (koff) of 0.00071 s⁻¹ and a kon of 350000 M⁻¹ s⁻¹.
B3: the koff came out at 0.000642 s⁻¹ and the kon was 371000 M⁻¹ s⁻¹.
Taken in the same sequence, the figures for B4 were 0.00063 s⁻¹ and 340000 M⁻¹ s⁻¹.
Molecule B5 registered a koff of 0.0002 s⁻¹ and a kon of 430000 M⁻¹ s⁻¹.
Take B6: the koff was 0.00095 s⁻¹ and the kon was 380000 M⁻¹ s⁻¹.
The corresponding values for B7 are 0.0002 s⁻¹ and 315000 M⁻¹ s⁻¹.
The corresponding values for B8 are 0.000176 s⁻¹ and 258000 ± 0.01 M⁻¹ s⁻¹.
In the case of B9, the dissociation rate constant (koff) was found to be 0.000495 s⁻¹ and the association rate constant (kon) is 390000 M⁻¹ s⁻¹.
With B12, the koff worked out at 0.000584 s⁻¹ and the kon turned out to be 332000 M⁻¹ s⁻¹.
Molecule B10 came in with a koff of 0.00613 s⁻¹ and a kon of 350000 M⁻¹ s⁻¹.
B11 showed a koff of 0.00083 s⁻¹ and a kon of 382000 M⁻¹ s⁻¹.

The target of another assay is T3, factor H binding protein (fHbp) variant 2.16 (Neisseria meningitidis 961-5945, UniProt Q6VS19, strain).
T3 construct: also called fHbp v2.16; fHbp v2; source: E. coli BL21(DE3), purified (Ni-NTA; SEC when necessary)
The assay can be described thus: SPR. The note with it: both partners purified.
In the case of B1, the Kd was found to be 0.0451 nM, the koff is 0.000706 s⁻¹ and the kon was found to be 1.57e+07 M⁻¹ s⁻¹.
In the case of B2, the koff is 0.000345 s⁻¹ and the on-rate (kon) is 204000 M⁻¹ s⁻¹.
As to B3, the koff worked out at 0.00264 s⁻¹ and the kon turned out to be 450000 M⁻¹ s⁻¹.
As for B4, the koff came to 0.00478 s⁻¹ and the kon was 382000 M⁻¹ s⁻¹.
Take B5: the off-rate (koff) was 0.000689 s⁻¹ and the on-rate constant (kon) amounted to 1.31e+07 M⁻¹ s⁻¹.
B6: the koff stood at 3.3e-05 s⁻¹ and the kon was determined as 1.16e+06 M⁻¹ s⁻¹.
Take B7: the koff came out at 7.98e-05 s⁻¹ and the on-rate (kon) is 2.73e+06 M⁻¹ s⁻¹.
In turn, B8 showed a koff of 3.89e-05 s⁻¹ and a kon of 741000 M⁻¹ s⁻¹.
Taken in the same sequence, the figures for B9 were 0.00079 s⁻¹ and 630000 M⁻¹ s⁻¹.
Regarding B12, the koff was 0.00045 s⁻¹ and the association rate constant (kon) worked out at 270000 M⁻¹ s⁻¹.
B10 registered a koff of 0.00188 s⁻¹ and a kon of 690000 M⁻¹ s⁻¹.
On to B11, for which the off-rate constant (koff) stood at 7.13e-06 s⁻¹ and the on-rate constant (kon) turned out to be 1.32e+06 M⁻¹ s⁻¹.

The term koff denotes a measure of how fast the partners let go of each other. One may read the kon as the rate constant with which the complex forms. A word on the Kd: it is a measure of binding affinity in units of concentration. A lower Kd goes with higher affinity.
